One may read the EC50 as the concentration giving half of the maximal effect. A low value points to an effect from little substance.

Assay [1] has as its target T1, B7H3 on the cell surface (PC9 cells; 293T-B7H3 cells) (UniProt Q5ZPR3 29-534, limits assumed).
T1 construct: whole, on cells; both carry B7H3 on the surface; also called Cell Surface B7H3; B7H3 protein in PC9 cells
T1 sequence (looked up): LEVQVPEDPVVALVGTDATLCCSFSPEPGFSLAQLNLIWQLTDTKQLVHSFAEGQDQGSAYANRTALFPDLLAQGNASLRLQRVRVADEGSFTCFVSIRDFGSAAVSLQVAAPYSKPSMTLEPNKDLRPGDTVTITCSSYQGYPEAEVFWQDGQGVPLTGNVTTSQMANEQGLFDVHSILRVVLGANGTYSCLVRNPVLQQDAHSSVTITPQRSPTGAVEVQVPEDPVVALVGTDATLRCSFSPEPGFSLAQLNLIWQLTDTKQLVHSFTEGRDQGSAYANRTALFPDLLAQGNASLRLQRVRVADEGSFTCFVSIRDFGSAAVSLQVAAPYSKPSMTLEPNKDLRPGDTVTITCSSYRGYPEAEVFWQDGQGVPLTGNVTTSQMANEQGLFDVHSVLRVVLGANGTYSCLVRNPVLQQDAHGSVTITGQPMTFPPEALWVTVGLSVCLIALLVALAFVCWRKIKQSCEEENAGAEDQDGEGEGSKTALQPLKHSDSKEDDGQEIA
Description: FACS on cells carrying B7H3 (PC9 per FIG. 2; 293T-B7H3 per method).

Assay [2] addresses T2, B7H3-hFc (UniProt Q5ZPR3 29-466, limits assumed).
T2 construct: Construct limits, linker and Fc not described; also called B7H3-hFc protein; not shown: human Fc (hFc)
T2 sequence (looked up): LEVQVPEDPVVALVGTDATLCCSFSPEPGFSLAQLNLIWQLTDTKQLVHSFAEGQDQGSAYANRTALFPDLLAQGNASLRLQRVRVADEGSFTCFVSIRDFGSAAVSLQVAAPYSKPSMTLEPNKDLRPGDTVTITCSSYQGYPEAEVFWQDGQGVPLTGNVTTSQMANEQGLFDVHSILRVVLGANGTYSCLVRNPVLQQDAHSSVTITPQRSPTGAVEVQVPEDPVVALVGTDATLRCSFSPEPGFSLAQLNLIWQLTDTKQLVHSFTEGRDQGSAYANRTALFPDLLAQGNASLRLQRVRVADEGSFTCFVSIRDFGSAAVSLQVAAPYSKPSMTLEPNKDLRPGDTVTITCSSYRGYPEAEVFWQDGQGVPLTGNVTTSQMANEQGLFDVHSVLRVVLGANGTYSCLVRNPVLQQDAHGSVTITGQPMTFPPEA
Description: ELISA, B7H3-hFc coated plate, purified hybridoma antibody. As for the experimental part:
(1) Screening of B7H3-binding positive clones through ELISA: 50 μL of B7H3-hFc (final concentration: 2 μg/mL) was used to coat each well of a 96-well ELISA plate (Corning, Cat. No.: 9018), and incubated overnight at room temperature. After the ELISA plate was rinsed with washing buffer (PBS+0.05% Tween20) 3 times, blocking buffer (PBS+2% BSA (Sigma, Cat. No.: V90093)) was added and the ELISA plate was incubated at room temperature for 1 hour. The ELISA plate was rinsed with washing buffer 3 times; and hybridoma supernatant was added, and the ELISA plate was incubated at room temperature for 1 hour and rinsed 3 times. 100 μL of 10,000-fold diluted HRP-conjugated goat anti-mouse IgG secondary antibody (Thermo, Cat. No.: 31432) was added to each well, and the ELISA plate was incubated at room temperature for 1 hour in the dark and rinsed 3 times. 100 μL of TMB (Biocytogen, Cat. No.: ES-002) was added to each well, and the ELISA plate was incubated at room temperature for color development for 2 minutes, 100 μL of reaction terminating solution (2N H2SO4) was added to each well to terminate the color reaction, and an OD450 value of each well was read using a microplate reader (Tecan Spark). (2) Screening of B7H3-binding positive clones through FACS: 50 μL of the positive hybridoma supernatant or purified hybridoma antibody in the foregoing test was mixed with 50 μL of 293T-B7H3 cells (2×10⁵ cells/well), and a resulting mixture was added to a 96-well plate with a U-shaped bottom and left standing at 4° C. for 1 hour, the 96-well plate was rinsed with FACS buffer (PBS+3% FCS) and centrifuged twice, then 400-fold diluted PE-labeled goat anti-mouse secondary antibody (Biolegend, Cat. No.: 405307) was added, the 96-well plate was incubated at 4° C. for 30 minutes in the dark, rinsed with FACS buffer and centrifuged twice, and signal values of the cells in a PE channel were detected by using BD Accuri C6 flow cytometer. (3) Subcloning: Positive multiclonal hybridoma cells identified by ELISA and FACS were subcloned using the limiting dilution method. The subclones were further detected and screened using ELISA and FACS to obtain positive hybridoma monoclonal clones.
ELISA and FACS were conducted to detect the binding ability of purified antibody samples to B7H3. Results are shown in FIG. 1(a-b), FIG. 2(a-b) and Table 1.
For orientation: An ELISA detects its analyte on a solid surface through an enzyme-linked reagent.

B1: 2E10 (antibody, mouse IgG2a, V domains shown)
VH: EVQLQQSGPELVKPGASVKISCKTSGYTFTEYTMHWVKQSHGKNLEWIGGINTDNGGTTYSQKFKDKATLTVDRSSSTAYMVLRSLTSEDSAVYYCARSFNNYGPAWFAYWGQGALVTVSA
VL: DIVMTQSHKFMSTSIGDRVSITCKASQDVRSAVAWYQQRPGQSPKLLIYWASTRHTGVPARFTGSGSGTDYTLTINNVQSEDLAGYFCQQYSSYFTFGGGTKLEKK
notes: Murine hybridoma antibody; also called B7H3 hybridoma monoclonal antibody 2E10
Regarding B1, the values for the EC50 in assay [1] and in assay [2] were 0.234 µg/mL and 0.0067 µg/mL, respectively.

B2: 5B6 (antibody, mouse IgG1, V domains shown)
VH: QVQLQQSGAELARPGASVKMSCKTSGYTFITYTIHWVKQRPGQGLEWIGYINPTSDYANFNQKFKDKATLTADKSSRTAYMQLSSLTSEDSAVYYCARWGTTVFQFYFDYWGQGTTLTVSS
VL: QIVLSQSPAILSASPGEKVTMTCRASQSLSYINWYQLKPGSSPKPWIYATSSLQSGVPARFSGSASGTSYSLTISRVEAEDAATYFCQHWSSDPPTIGGGTKLEIK
notes: Murine hybridoma antibody; also called B7H3 hybridoma monoclonal antibody 5B6
Turning to B2, the EC50 came out at 0.0713 µg/mL in assay [1] and 0.00493 µg/mL in assay [2].

B3: 7F5 (antibody, mouse IgG1, V domains shown)
VH: EVQLQQSGAELVRPGALVKLSCKTSGFNIKAYYIHWVKQRPEQGLEWIGWIDPENGNTFYDPKFQGKASITADTSSNTAYLQLSSLTSEDAAVYYCTRSSTRLRPFDYWGQGTTLTVSS
VL: DIVMTQAAFSNPVTLGTSASISCRSSKSLLHSNGITYLYWYLQKSGQSPQLLIYQMSNLASGVPDRFSSSGSGTDFTLRISRVEAEDVGVYYCAQNLELYTFGGGTKLEIK
notes: Murine hybridoma antibody purified by protein A; also called B7H3 hybridoma monoclonal antibody 7F5
Regarding B3, the EC50 in assay [1] was determined as 0.197 µg/mL; in assay [2] it was 0.00576 µg/mL.

B4: 13A2 (antibody, mouse IgG2b, V domains shown)
VH: EVQLQQSGPELVKPGASVKISCKTSGYTFTEYVMHWVKQRHGQSLEWIGGINPNTGGTTYNQKFEGKATLTVDKSSSSAYMEFRSLTSEDSAVYYCARRMPFGISAMDYWGQGTSVTVSS
VL: QIVLTQSPAIMSASPGEKVTMTCSASSSVSYIHWFQQKSGTSPKRWISETSKLASGVPARFSGSGSGTSYSLTISSMGAEDAATYYCHQWISYPPTFGAGTKLELK
notes: Murine hybridoma antibody; also called B7H3 hybridoma monoclonal antibody 13A2
As for B4, the EC50 was determined as 0.101 µg/mL in assay [1] and 0.00052 µg/mL in assay [2].

B5: 2F12 (antibody, mouse IgG1, V domains shown)
VH: EVQLQQSGPELVKSGASVNISCKTSGYTFTENTMHWVKLSHGKSLEWIGGINPNNGGTTYNQKFKGKATLTVDKSSSTAYMELRSLTSEDSAVYYCARRGRWPPDWYFDVWGAGTTVTVSS
VL: QIVLTQSPAIMSASPGEKVTMTCSASSSLSYMHWYQQKSGTSPKRWIYDTSKLASGVPARFSGSGSGTSYSLTISSMEAEDAATYYCQQWSSNPLTFGAGTKLELK
notes: Murine hybridoma antibody; also called B7H3 hybridoma monoclonal antibody 2F12
B5 had an EC50 in assay [1] of 0.217 µg/mL.

B6: 14B3 (antibody, mouse IgG1, V domains shown)
VH: QVQLQQSGPELVRPGVSVKISCKGSGYTFTDHAIHWVKQSHAKSLEWIGVINTYSGNTNFNQKLKGKATMTVDKSSSTAYMELARLTSEDSAIYYCARGAHSSGYPYWYFDVWGAGTTVTVSS
VL: QIVLSQSPAILSASAGEKVTMTCRASSSVSYMHWYQQKPGSSPKPWIYATSNLASGVPARFSGSGSGTSYSLTISRVEAEDAATYYCQQWSTNPFTFGSGTKLEMK
notes: Murine hybridoma antibody; also called B7H3 hybridoma monoclonal antibody 14B3
With B6, the EC50 in assay [1] was determined as 0.248 µg/mL; in assay [2] it was 0.0091 µg/mL.

B7: 9C8 (antibody, mouse IgG1, V domains shown)
VH: EVQLQQSGPELVKPGASVKISCKTSGYTFTEYTIHWVKQSHGKSLEWIGGINPNSGGTTYNLKFKGKATLTVDKSSSTVYMELRSLTSEDSAVYYCARKEGFFTTDYWGQGTTLTVSS
VL: QTVLTQSPAIMSASPGEKVTMTCSASSSLSYIHWYRQKSGTSPKRWIYDTSNLATGVPVRFSGSGSGTSYSLTISSMEAEDAATYYCQQWHYNPPTFGGGTKLEIK
notes: Murine hybridoma antibody; also called B7H3 hybridoma monoclonal antibody 9C8
B7: the EC50 was determined as 0.0861 µg/mL in assay [1] and 0.0104 µg/mL in assay [2].

B8: 2F7 (antibody, mouse IgG2b, V domains shown)
VH: QVQLQQPGAELVKPGASVKLSCKASGYTFTSYYIYWLKQRPGQGLEWIGGIKPSNGDTNFNAKFMNKATLTVDKSSSTAYMQLSSLTSEDSAIYYCTRFFYGSPYDFDVWGAGTTVTVSS
VL: NIVMTQSPKSMSMAVGERVTLTCKASENVDTHVSWYQQKPEQSPTLLMYGTSNRFTGVPDRFTGSGSATDFTLTISSVQAEDLADYHCGQSYRYPYTFGGGTKLEIK
notes: Murine hybridoma antibody; also called B7H3 hybridoma monoclonal antibody 2F7
Regarding B8, the results for the EC50 in assay [1] and in assay [2] were 0.177 µg/mL and 0.00278 µg/mL, respectively.

The values above are taken from patent US20250276082A1 (INNOLAKE BIOPHARMA HANGZHOU, published 2025).
